Common to all, as to conditions: concentrated culture medium, enzyme titrated, GC-MS assay at pH 8.0, 25 mM Tris-HCl, 200 µM substrate, BSA, 5% ethanol
Substrate in data set [1]: CCCOC(=O)CCC
The experiment in a line: cells, lysate or membranes.

Substrate in data set [2]: CCCCCCCCOC(=O)CC
Briefly: competitive inhibition of 4-nitrophenyl acetate hydrolysis (Ki taken as Km); kcat from GC-MS substrate loss. Format: biochemical, Drosophila melanogaster.

Substrate in data set [3]: CCCCCOC(C)=O
The data set is described as above. The format is biochemical, Drosophila melanogaster.

B1: EST-6 (EST-6^F), esterase 6 (Drosophila melanogaster) (protein)
chain: SDTDDPLLVQLPQGKLRGRDNGSYYSYESIPYAEPPTGDLRFEAPEPYKQKWSDIFDATKTPVACLQWDQFTPGANKLVGEEDCLTVSVYKPKNSKRNSFPVVAHIHGGAFMFGAAWQNGHENVMREGKFILVKISYRLGPLGFVSTGDRDLPGNYGLKDQRLALKWIKQNIASFGGEPQNVLLVGHSAGGASVHLQMLREDFGQLARAAFSFSGNALDPWVIQKGARGRAFELGRNVGCESAEDSTSLKKCLKSKPASELVTAVRKFLIFSYVPFAPFSPVLEPSDAPDAIITQDPRDVIKSGKFGQVPWAVSYVTEDGGYNAALLLKERKSGIVIDDLNERWLELAPYLLFYRDTKTKKDMDDYSRKIKQEYIGNQRFDIESYSELQRLFTDILFKNSTQESLDLHRKYGKSPAYAYVYDNPAEKGIAQVLANRTDYDFGTVHGDDYFLIFENFVRDVEMRPDEQIISRNFINMLADFASSDNGSLKYGECDFKDNVGSEKFQLLAIYIDGCQNRQHVEFP
notes: natural allele expressed behind its own signal peptide (secreted) with BacuVance baculovirus system (Genscript); no tag told
B1: the Michaelis-Menten constant (Km) turned out to be 18.3 mM in data set [1], 3.16 mM in data set [2] and 2.93 mM in data set [3]. The results for the kcat in data set [1], in data set [2] and in data set [3] were 1670 s⁻¹, 4520 ± 1680 s⁻¹ and 969 ± 215 s⁻¹, respectively.

Broadly, the Km is the concentration of substrate that gives half-maximal velocity. The term kcat denotes the maximal rate divided by the concentration of active sites.

The values above are taken from publication PMC4633494, “An antennal carboxylesterase from Drosophila melanogaster, esterase 6, is a candidate odorant-degrading enzyme toward food odorants” (Frontiers in Physiology, 2015).
